According to patent US20110076347A1 (BEN GURION UNIVERSITY OF THE NEGEV RESEARCH AND DEVELOPMENT …, published 2011):

target: human brain inositol monophosphatase (IMPase), in postmortem crude homogenate (human) (UniProt P29218); experiment: cell-based or functional assay
Sequence (P29218 whole entry): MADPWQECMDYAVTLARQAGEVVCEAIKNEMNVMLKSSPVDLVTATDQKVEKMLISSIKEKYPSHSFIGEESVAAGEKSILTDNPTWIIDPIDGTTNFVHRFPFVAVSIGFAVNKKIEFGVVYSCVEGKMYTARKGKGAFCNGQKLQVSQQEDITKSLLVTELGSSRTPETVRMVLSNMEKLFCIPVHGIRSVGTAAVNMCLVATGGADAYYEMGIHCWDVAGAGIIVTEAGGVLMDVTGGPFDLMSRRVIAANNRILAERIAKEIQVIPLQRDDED

In the case of “human recombinant calbindin D28k (from UniProt P05937 1-261)”, the human brain IMPase activity is reported as 3 fold.

target: T1, human recombinant calbindin D28k (human, UniProt P05937 1-261, limits assumed); experiment: cell-based or functional assay
T1 sequence (looked up): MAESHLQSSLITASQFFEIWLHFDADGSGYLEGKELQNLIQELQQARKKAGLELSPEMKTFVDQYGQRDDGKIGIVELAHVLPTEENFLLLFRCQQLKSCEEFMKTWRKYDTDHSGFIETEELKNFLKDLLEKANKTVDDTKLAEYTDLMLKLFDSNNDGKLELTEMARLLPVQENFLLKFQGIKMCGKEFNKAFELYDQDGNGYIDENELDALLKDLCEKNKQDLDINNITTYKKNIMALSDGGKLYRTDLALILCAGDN

SYEHYP [Peptide 5 (Ser-Tyr-Glu-His-Lys-Pro)] and KHIKPS [Peptide 7 (Lys-His-Ile-Lys-Pro-Ser)] are the same in “% Inhibition of Calbindin Activation” value: 56% for the first, 56% for the second.

Going from IKAKYP [Peptide 2 (Ile-Lys-Ala-Lys-Tyr-Pro)] to IKEKY [Peptide 9 (Ile-Lys-Glu-Lys-Tyr)], the “% Inhibition of Calbindin Activation” value falls from 100% to 0%.

KEK [Peptide 10 (Lys-Glu-Lys)] and IAEAYP [Peptide 6 (Ile-Ala-Glu-Ala-Tyr-Pro)] are the same in “% Inhibition of Calbindin Activation” value: 0% for the first, 0% for the second.

First: IKEKYP [Peptide 1 (Ile-Lys-Glu-Lys-Tyr-Pro)]
Second: IAAAYP [Peptide 8 (Ile-Ala-Ala-Ala-Tyr-Pro)]
The “% Inhibition of Calbindin Activation” value of the first is higher: 78% for the first, 0% for the second.

Going from IKEAYP [Peptide 3 (Ile-Lys-Glu-Ala-Tyr-Pro)] to IAEKYP [Peptide 4 (Ile-Ala-Glu-Lys-Tyr-Pro)], the “% Inhibition of Calbindin Activation” value falls from 100% to 89%.
